Assay results as given in PMC4041322, “Differences in the intrinsic immunogenicity and allergenicity of Bet v 1 and related food allergens revealed by site-directed mutagenesis” (Allergy, 2013).
Residue numbers refer to the chain shown, from its start. In names and notes the source's numbering stands. Blank lines part the entries; values can stand above or below the molecule they belong to.

What was measured:
[1] = SEC; high-performance size-exclusion chromatography (HPSEC) of the purified recombinant proteins; fractions of monomers, dimers, tri-/tetramers and high MW aggregates; details in the online Supporting Information
rCor a 1.0401 (hazelnut) = test: as above
rMal d 1.0108 (apple) = test: as above
[2] = molecular target: the molecule itself; test: as above

Molecule: Mal d 1 C107S
- percent high MW aggregates [1]: <0.5%

Molecule: rCor a 1.0401
- percent high MW aggregates [1]: 9%

- percent dimers (rCor a 1.0401 (hazelnut)): 28%
- percent monomers (rCor a 1.0401 (hazelnut)): 45%
- percent tri-/tetramers (rCor a 1.0401 (hazelnut)): 18%
Molecule: rCor a 1.0401 (natural protein)

Molecule: rMal d 1.0108
- percent high MW aggregates [1]: 2%

- percent dimers (rMal d 1.0108 (apple)): 34%
- percent monomers (rMal d 1.0108 (apple)): 56%
- percent tri-/tetramers (rMal d 1.0108 (apple)): 8%
Molecule: rMal d 1.0108 (natural protein)

B1: Mal d 1 C107S, I113K (natural protein)
chain: GVYTFENEFTSEIPPSRLFKAFVLDADNLIPKIAPQAIKQAEILEGNGGPGTIKKITFGEGSQYGYVKHRIDSIDEASYSYSYTLIEGDALTDTIEKISYETKLVASGSGSTKKSISHYHTKGNIEIKEEHVKAGKEKAHGLFKLIESYLKDHPDAYN
- percent monomers [2]: > 99%

B2: Mal d 1 C107S (natural protein)
chain: B1 chain with K113I
- percent monomers [2]: > 98%

B3: Cor a 1 C4,82,160S (natural protein)
chain: GVFSYEDEATSVIPPARLFKSFVLDADNLIPKVAPQHFTSAENLEGNGGPGTIKKITFAEGNEFKYMKHKVEEIDHANFKYSYSIIEGGPLGHTLEKISYEIKMAAAPHGGGSILKITSKYHTKGNASINEEEIKAGKEKAAGLFKAVEAYLLAHPDAYS
- percent monomers [2]: 93%

B4: Cor a 1 C4,82,160S, L115K (natural protein)
chain: B3 chain with L115K
- percent monomers [2]: > 99%
